Reference: FireProtDB (doi:10.1021/bi060525p)

Details: Homo sapiens, pH 7.4, Thermal, Phosphate 10 mM

Hemoglobin subunit alpha wild type, P69905, sequence (P69905 whole entry): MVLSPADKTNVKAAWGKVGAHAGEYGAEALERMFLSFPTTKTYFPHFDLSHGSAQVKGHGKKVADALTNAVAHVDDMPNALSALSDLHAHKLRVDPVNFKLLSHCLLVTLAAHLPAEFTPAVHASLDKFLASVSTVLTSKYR

Work on “Hemoglobin subunit alpha wild type, P69905” yielded a Tm (Absorbance) of 71 °C, a Tm (CD) of 73 °C and a Tm (DSC) of 75 °C. The Tm (Optical Density) was 58.7 °C.
